Measurements published in PMC5389574 (Nucleic Acids Research, 2016).

Molecular target: T1, recombinant Rpb4/Rpb7-6His (S. cerevisiae, UniProt P20433 1-221; P34087 1-171)
T1 sequence (looked up) 1: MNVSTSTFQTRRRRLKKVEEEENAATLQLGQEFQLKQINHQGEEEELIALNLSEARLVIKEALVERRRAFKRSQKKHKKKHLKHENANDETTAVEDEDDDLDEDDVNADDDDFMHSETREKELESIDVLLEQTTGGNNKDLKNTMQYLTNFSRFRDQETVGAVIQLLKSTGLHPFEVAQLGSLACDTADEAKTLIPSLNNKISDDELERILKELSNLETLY
T1 sequence (looked up) 2: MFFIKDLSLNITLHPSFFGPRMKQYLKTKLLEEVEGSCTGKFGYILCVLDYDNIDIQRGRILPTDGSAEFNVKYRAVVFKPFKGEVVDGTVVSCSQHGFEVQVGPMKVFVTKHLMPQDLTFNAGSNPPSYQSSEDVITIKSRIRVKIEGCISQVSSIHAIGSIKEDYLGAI
Test: pull-down

binding result: binds
B1: recombinant Sub1 (natural protein, S. cerevisiae, UniProt P54000 1-292, looked up)
chain: MSYYNRYRNKRRSDNGGGNLSNSNNNNGGMPSGLSASDAIFDLGKNKRVTVRQFRNINLIDIREYYLDSSTGEMKPGKKGISLTEDLYDELLKHRLNIDEALRRLGSKRPKTKMVRLLSDDEYEDDNNNDSTNNDKDKNGKDKNSPKKRREDKSKASNESHDLEPRSKKKKPAPPTLLPHEENIQNAEREANATLIIPGQAGRKQQEERKQKEKEEAEEAKAKAVAEQEKEAKAKEKIAEPEPEPVPTLQAKKEDIVSNINESKDANSSDEEFAQSLEAEMNKAEDDISEEE
